Experimental data as given in patent publication US20050176124.

Molecular target: T1, EGF receptor autophosphorylation site peptide DADEpYL-NH2
T1 chain: DADEYL

B1: DSP-3-glutathione-S-transferase (GST) fusion protein (protein)
chain: MGNGMNKILPGLYIGNFKDARDAEQLSKNKVTHILSVHDSARPMLEGVKYLCIPAADSPSQNLTRHFKESIKFIHECRLRGESCLVHCLAGVSRSVTLVIAYIMTVTDFGWEDALHTVRAGRSCANPNVGFQRQLQEFEKHEVHQYRQWLKEEYGESPLQDAEEAKNILAAPGILKFWAFLRRL
  Km (phosphatase assay, release of 32P from substrate peptide): Km=1.2 µM
  specific activity (phosphatase assay, release of 32P from substrate peptide): 88.4 nmol/min/mg
